Results reported in patent publication US6365373 (Genentech, dated 2002).
Numbering of substitutions follows the chain as printed.

B1: NGF127 (ligand)
chain: SSSHPIFHRGEFSVCDSESLWVTDKTTATDIKGKEVMVLGEVNINNSVFKQYFFETKCRDPNPVDSGCRGIDSKHWNSQCKTTQTFVKALTMDGKQAAWRFIRIDTACVCVLSRKAVRRA
B2: NGF1234 (ligand)
chain: B1 chain with T29I, F86Y
B3: NGFR2 (ligand)
chain: B1 chain with E18V, Q79Y
B4: NGFR3 (ligand)
chain: B1 chain with L20V, Q79Y
B5: NGF131 (ligand)
chain: B1 chain with E18V, T29I, Q79Y, K81T, F86Y
notes: also called NGF31
B6: NGF130 (ligand)
chain: B1 chain with E18V, Q79Y, K81T, F86Y

molecular target: T1, human trkA receptor immunoadhesin (trkA extracellular domain fused to immunoglobulin constant domains) (human, UniProt P04629 33-423); assay: competitive displacement of labeled NGF from human trkA immunoadhesin, 96-well plate
T1 construct: extracellular domain; not shown: immunoglobulin constant domains
T1 sequence (P04629 33-423): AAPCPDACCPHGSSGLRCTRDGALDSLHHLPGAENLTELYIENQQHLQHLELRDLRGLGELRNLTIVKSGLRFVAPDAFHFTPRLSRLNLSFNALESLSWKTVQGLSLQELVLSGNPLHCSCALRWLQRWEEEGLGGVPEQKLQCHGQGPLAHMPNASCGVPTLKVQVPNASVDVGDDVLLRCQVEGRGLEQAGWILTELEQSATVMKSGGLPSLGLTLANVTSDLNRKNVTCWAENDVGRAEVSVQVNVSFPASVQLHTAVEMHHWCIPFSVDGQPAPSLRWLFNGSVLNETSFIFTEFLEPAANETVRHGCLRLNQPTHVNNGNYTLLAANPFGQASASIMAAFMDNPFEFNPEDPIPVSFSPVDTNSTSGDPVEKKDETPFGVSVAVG

Binder	IC50mut/IC50NGF
B1	1 ratio
B2	1.3 ratio
B3	0.9 ratio
B4	1.6 ratio
B5	1.1 ratio
B6	1 ratio

molecular target: T2, human trkC receptor immunoadhesin (trkC extracellular domain fused to immunoglobulin constant domains) (human, UniProt Q16288 32-429); assay: competitive displacement of labeled NT-3 from human trkC immunoadhesin, 96-well plate
T2 construct: extracellular domain; not shown: immunoglobulin constant domains

Binder	IC50mut/IC50NGF12	IC50mut/IC50NT-3
B1	2.2 ratio	33 ratio
B2	0.3 ratio	4.9 ratio
B3	0.7 ratio	10.5 ratio
B4	2.5 ratio	37.2 ratio
B5	0.2 ratio	3.3 ratio
B6	0.3 ratio	4.5 ratio
